Results from PMC2942077 (Biochemistry, 2010).
Residue numbers refer to the chain shown, from its start.

Tests used:
Experiment in all cases: pull-down
[1] = target: T1, purified recombinant wild-type human RP2 (human, UniProt O75695 1-350)
T1 sequence (looked up): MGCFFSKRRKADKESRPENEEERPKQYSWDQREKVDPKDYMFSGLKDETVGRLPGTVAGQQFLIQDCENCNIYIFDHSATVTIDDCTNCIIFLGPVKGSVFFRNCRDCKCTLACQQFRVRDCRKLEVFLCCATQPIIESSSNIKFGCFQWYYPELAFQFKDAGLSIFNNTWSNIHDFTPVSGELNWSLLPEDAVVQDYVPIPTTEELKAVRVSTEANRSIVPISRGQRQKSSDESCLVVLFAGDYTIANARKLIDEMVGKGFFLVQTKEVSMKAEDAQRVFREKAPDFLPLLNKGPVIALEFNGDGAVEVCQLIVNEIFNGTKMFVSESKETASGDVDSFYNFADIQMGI

[2] = target: T2, RP2 R118H disease-linked mutant, purified recombinant (human, UniProt O75695 1-350, R118H)
T2 sequence (looked up): T1 sequence (looked up) with R118H

[3] = target: T3, RP2 L188P disease-causing mutant, purified recombinant (human, UniProt O75695 1-350, L188P)
T3 sequence (looked up): T1 sequence (looked up) with L188P

[4] = target: T4, RP2 R282W disease-linked mutant, purified recombinant (human, UniProt O75695 1-350, R282W)
T4 sequence (looked up): T1 sequence (looked up) with R282W

Measured: binding result

B1: GST fusion protein containing the N-terminal domain of NSF (domain or fragment, Chinese hamster, UniProt P18708 1-205, looked up)
chain: MAGRSMQAARCPTDELSLSNCAVVSEKDYQSGQHVIVRTSPNHKYIFTLRTHPSVVPGSVAFSLPQRKWAGLSIGQEIEVALYSFDKAKQCIGTMTIEIDFLQKKNIDSNPYDTDKMAAEFIQQFNNQAFSVGQQLVFSFNDKLFGLLVKDIEAMDPSILKGEPASGKRQKIEVGLVVGNSQVAFEKAENSSLNLIGKAKTKENR
binds: all assays above
